Data set [1] has as its target GST-PTP1B, mutated (Ser215): GST-PTP-1B Cys215Ser mutant, human PTP1B amino acids 1-320 fused to GST (human). Nature of the data set: SPA competition binding assay against tritiated BzN-EJJ-CONH2, GST-PTP1B mutated (Ser215).
In data set [2] the target is GST-PTP1B, non-mutated (Cys215): human recombinant PTP1B amino acids 1-320 fused to GST enzyme (glutathione S-transferase) (human). The data set is described as follows: SPA competition binding assay against tritiated BzN-EJJ-CONH2, GST-PTP1B non-mutated (Cys215).
The target of data set [3] is T1, human recombinant GST-PTP1B, non-mutated (Cys215) (Homo sapiens, UniProt P18031).
T1 construct: Human recombinant PTP1B, containing amino acids 1-320; made in house; host or cells: E. coli
T1 sequence (P18031 1-320): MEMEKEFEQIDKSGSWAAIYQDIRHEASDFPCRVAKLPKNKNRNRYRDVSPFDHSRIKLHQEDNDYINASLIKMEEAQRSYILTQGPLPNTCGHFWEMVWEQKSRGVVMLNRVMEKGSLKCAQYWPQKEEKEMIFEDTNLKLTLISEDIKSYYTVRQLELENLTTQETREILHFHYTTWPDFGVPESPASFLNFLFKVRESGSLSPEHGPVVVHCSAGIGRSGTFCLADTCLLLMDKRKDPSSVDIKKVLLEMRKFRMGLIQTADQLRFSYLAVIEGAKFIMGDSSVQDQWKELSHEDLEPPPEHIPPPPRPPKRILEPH
The data set is described as follows: GST-PTP1B SPA binding assay with non-mutated (Cys215) enzyme. The conditions noted are these: read-out: % inhibition, Non-Mutated. Here is the method: (§1) ID No. 7) contains active site serine(215).
(§2) IC50 Binding Assay Protocol
(§3) To each well is added the following solutions @ 25° C. in the following chronological order:
(§4) 1. 110 μl of assay buffer.
(§5) 3. 10 μl. of testing compound in DMSO at 10 different concentrations in serial dilution (final DMSO, about 5% v/v) in duplicate @ 25° C.
(§6) 4. 10 μl. of 3.75 μg/ml purified human recombinant GST-PTP1B in enzyme dilution buffer.
(§7) 5. The plate is shaken for 2 minutes.
(§8) 6. 10 μl. of 0.3 μg/ml anti-glutathione S-transferase (anti-GST) rabbit IgG (Molecular Probes) diluted in antibody dilution buffer @ 25° C.
(§9) 7. The plate is shaken for 2 minutes.
(§10) 8. 50 μl. of protein A-PVT SPA beads (Amersham) @ 25° C.
(§11) 9. The plate is shaken for 5 minutes. The binding signal is quantified on a Microbeta 96-well plate counter.
(§12) 10. The non-specific signal is defined as the enzyme-ligand binding in the absence of anti-GST antibody.
(§13) 11. 100% binding activity is defined as the enzyme-ligand binding in the presence of anti-GST antibody, but in the absence of the testing ligands with the non-specific binding subtracted.
(§14) 12. Percentage of inhibition is calculated accordingly.
(§15) 13. IC50 value is approximated from the non-linear regression fit with the 4-parameter/multiple sites equation (described in: "Robust Statistics", New York, Wiley, by P. J. Huber (1981) and reported in nM units.

Data set [4] concerns the target T2, human recombinant GST-PTP1B, mutated (Ser215) (Homo sapiens, UniProt P18031, C215S).
T2 construct: Human recombinant PTP1B, containing amino acids 1-320; made in house; host or cells: bacteria (E. coli DH5alpha named for the transformation)
T2 sequence (P18031 1-320 C215S): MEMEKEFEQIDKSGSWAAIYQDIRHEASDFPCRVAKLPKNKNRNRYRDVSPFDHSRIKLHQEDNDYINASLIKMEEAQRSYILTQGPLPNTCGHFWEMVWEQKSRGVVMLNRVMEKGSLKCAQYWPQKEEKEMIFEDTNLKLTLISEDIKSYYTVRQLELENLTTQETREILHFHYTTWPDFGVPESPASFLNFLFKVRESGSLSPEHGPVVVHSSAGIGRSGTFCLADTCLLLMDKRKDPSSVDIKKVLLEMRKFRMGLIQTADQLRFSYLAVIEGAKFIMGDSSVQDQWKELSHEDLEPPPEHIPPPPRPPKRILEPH
Nature of the data set: GST-PTP1B SPA binding assay with mutated enzyme (Ser215). Here is the method:
as §1, §2, §3, §4, §5, §6, §7, §8, §9, §10, §11, §12, §13, §14, §15

For a further data set, the system named is PTP1B. The data set is described as follows: inhibition of PTP1B. The class given is biochemical. The conditions noted are these: type of constant not stated.
The nature of data set [5]: phosphatase activity of expressed PTP-1B constructs. The data set is classed as biochemical. The note with it: expressed (E. coli for GST-PTP-1B) protein. An excerpt: The full length human PTP-1B cDNA sequence (published in J. Chernoff et al., PNAS, USA, supra) cloned into a PET vector was obtained from Dr. Raymond Erickson (Harvard University). The PTP-1B CDNA sequence encoding amino acids 1-320 (Seq. ID No. 1) was amplified by PCR using the full length sequence as template. […] The amplified fragment was cloned into pCR2 (Invitrogen) and sequenced to insure that no sequence errors had been introduced by Taq polymerase during the amplification. This sequence was released from pCR2 by a Bam HI/Eco RI digest and the PTP-1B cDNA fragment ligated into the GST fusion vector pGEX-2T (Pharmacia) that had been digested with the same enzymes. […] This same 1-320 PTP-1B sequence (Seq. ID No. 1) was then cloned into the expression vector pFLAG-2, where FLAG is the octa-peptide […] This was done by releasing the PTP-1B sequence from the pGEX-2T vector by Nco I/Eco RI digest, filling in the ends of this fragment by Klenow and blunt-end ligating into the blunted Eco RI site of pFLAG2. Site-directed mutagenesis was performed on pFLAG2-PTP-1B plasmid using the Chameleon (Stratagene) double-stranded mutagenesis kit from Stratagene, to replaced the active-site Cys-215 with serine. The mutagenesis was carried out essentially as described by the manufacturer and mutants identifed by DNA sequencing. […]

Data set [6] addresses PTP1B tyrosine phosphatase (construct not stated) (human).
Data set [7] has as its target T3, GST-PTP1B, non-mutated (Cys215): human recombinant PTP1B amino acids 1-320 fused to GST enzyme (glutathione … (human)).
T3 chain: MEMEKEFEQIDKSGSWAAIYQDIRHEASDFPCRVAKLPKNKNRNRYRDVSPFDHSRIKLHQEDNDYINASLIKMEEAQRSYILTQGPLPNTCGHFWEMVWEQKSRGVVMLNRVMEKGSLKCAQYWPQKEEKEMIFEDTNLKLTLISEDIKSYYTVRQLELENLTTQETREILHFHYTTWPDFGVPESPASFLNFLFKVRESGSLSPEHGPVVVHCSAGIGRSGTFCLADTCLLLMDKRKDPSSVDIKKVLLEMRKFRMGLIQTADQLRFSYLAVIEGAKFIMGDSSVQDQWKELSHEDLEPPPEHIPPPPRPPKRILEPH
Nature of the data set: SPA competition binding assay against tritiated BzN-EJJ-CONH2, GST-PTP1B non-mutated (Cys215). Here is the method:
1. 110 μl of assay buffer. 2. […] 3. 10 μl. of testing compound in DMSO at 10 different concentrations in serial dilution (final DMSO, about 5% v/v) in duplicate @ 25° C. 4. 10 μl. of 3.75 μg/ml purified human recombinant GST-PTP1B in enzyme dilution buffer. 5. The plate is shaken for 2 minutes. 6. 10 μl. of 0.3 μg/ml anti-glutathione S-transferase (anti-GST) rabbit IgG (Molecular Probes) diluted in antibody dilution buffer @ 25° C. 7. The plate is shaken for 2 minutes. 8. 50 μl. of protein A-PVT SPA beads (Amersham) @ 25° C. 9. The plate is shaken for 5 minutes. The binding signal is quantified on a Microbeta 96-well plate counter. 10. The non-specific signal is defined as the enzyme-ligand binding in the absence of anti-GST antibody. 11. 100% binding activity is defined as the enzyme-ligand binding in the presence of anti-GST antibody, but in the absence of the testing ligands with the non-specific binding subtracted. 12. Percentage of inhibition is calculated accordingly.

Where [8] appears, read: read-out: % inhibition, Mutated.

Square brackets hold non-standard residues; d marks the D form. Peptide text beside a SMILES is read from it. * marks the point of attachment. F2Pmp = N[C@@H](Cc1ccc(C(F)(F)P(=O)(O)O)cc1)C(=O)O; Bz = O=C(c1ccccc1)*

By IC50 is commonly meant the concentration that inhibits the measured activity by half. As to DADE(F2PMP)L hexapeptide, the results for the IC50 in data set [1] and in data set [2] were 100 nM and 400 nM, respectively.

As a reminder, the inhibition is the percentage by which the read-out fell short of the control. In the case of `COc1cc(OC)c(OC)cc1CCN=CCc1ncc[nH]1` [Amine], the inhibition at 2 µM in data set [3] is 67%; in data set [4] (setting [8]), 10%. Turning to `NC(=O)[C@H](Cc1ccc(C(F)(F)P(=O)(O)O)cc1)NC(=O)[C@H](Cc1ccc(C(F)(F)P(=O)(O)O)cc1)NC(=O)[C@H](CCC(=O)O)NC(=O)c1ccccc1` [BzN-EJJ-CONH2, N-Benzoyl-L-glutamyl-[4-phosphono(difluoromethyl)]-L-phenylalanyl-[4-phosphono(difluoromethyl)]-L-phenylalanineamide] (Bz-Glu-[F2Pmp]-[F2Pmp]-NH2), the “binding of substrate analog to mutated enzyme” value in data set [4] (mutated enzyme, truncated, amino acids 1-320) was “high affinity”. Further, the “active inhibitor of PTP1B” value in the data set with PTP1B is 5 nM. As for `OO` [Hydrogen peroxide], the inhibition at 83 µM in data set [3] is 90%; in data set [4] (setting [8]), 0%.

B1: GST-PTP-1B fusion protein: PTP-1B amino acids 1-320 fused to GST, expressed in E. Coli (protein)
chain: MEMEKEFEQIDKSGSWAAIYQDIRHEASDFPCRVAKLPKNKNRNRYRDVSPFDHSRIKLHQEDNDYINASLIKMEEAQRSYILTQGPLPNTCGHFWEMVWEQKSRGVVMLNRVMEKGSLKCAQYWPQKEEKEMIFEDTNLKLTLISEDIKSYYTVRQLELENLTTQETREILHFHYTTWPDFGVPESPASFLNFLFKVRESGSLSPEHGPVVVHCSAGIGRSGTFCLADTCLLLMDKRKDPSSVDIKKVLLEMRKFRMGLIQTADQLRFSYLAVIEGAKFIMGDSSVQDQWKELSHEDLEPPPEHIPPPPRPPKRILEPH
With B1, the phosphatase activity result in data set [5] is given as “active protein tyrosine phosphatase activity”.

B2: FLAG-PTP-1B Cys215Ser mutant: FLAG-tagged PTP-1B with active-site Cys-215 replaced with serine (Seq. ID No. 7) (protein, UniProt P18031 1-435, looked up, variant C215S)
Tyrosine-protein phosphatase …: MEMEKEFEQIDKSGSWAAIYQDIRHEASDFPCRVAKLPKNKNRNRYRDVSPFDHSRIKLHQEDNDYINASLIKMEEAQRSYILTQGPLPNTCGHFWEMVWEQKSRGVVMLNRVMEKGSLKCAQYWPQKEEKEMIFEDTNLKLTLISEDIKSYYTVRQLELENLTTQETREILHFHYTTWPDFGVPESPASFLNFLFKVRESGSLSPEHGPVVVHSSAGIGRSGTFCLADTCLLLMDKRKDPSSVDIKKVLLEMRKFRMGLIQTADQLRFSYLAVIEGAKFIMGDSSVQDQWKELSHEDLEPPPEHIPPPPRPPKRILEPHNGKCREFFPNHQWVKEETQEDKDCPIKEEKGSPLNAAPYGIESMSQDTEVRSRVVGGSLRGAQAASPAKGEPSLPEKDEDHALSYWKPFLVNMCVATVLTAGAYLCYRFLFNSNT
modifications: FLAG tag
B2: in data set [5], the phosphatase activity result is “not to have any phosphatase activity”. Turning to Bz-Glu-[F2Pmp]-[F2Pmp]-NH2, the inhibitor of PTP1B in data set [6] was 5 nM. Also, the IC50 in data set [1] was determined as 8 nM; in data set [7], 14 nM.

The values above are taken from patent US6114132A, “Prosphatase binding assay” (Merck Frosst Canada & Co., priority 1997, dated 2000).
